Source: the RNAGym collection of RNA variant scans (doi:10.1073/pnas.2313332121)

B1: TPR t1 (parent)
chain: GACCAAUCUGCCCUCAGAGCUCGAGAACAUCUUCGGAUGCAGAGGAGGCAGGCUUCGGUGGCGCGAUAGCGCCAACGUCCUCAACCUCCAAUGCAUCCCACCACAUGAUGAUGCCUGAAGAGCCUUGGUUUUUUG

Variants of: B1
Experiment: polymerase ribozyme fitness, log enrichment relative to wild type (log ratio); higher = more active; in vitro selection for triplet polymerase activity
In short: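 Mutant libraries of each subunit of a heterodimeric triplet polymerase ribozyme were built by PCR and transcribed. Each library went through one round of in vitro selection in triplicate: annealing with biotinylated primer, partner subunit and triplets, frozen incubation at −7 °C, gel excision of extended constructs, streptavidin-bead capture and RT-PCR. Input and output libraries were Illumina-sequenced; only genotypes with ≥10 input reads and ≥1 read per output were kept. Fitness is log2(genotype enrichment/wild-type enrichment), using inverse-variance-weighted replicate averages.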

Variant	polymerase ribozyme fitness (log ratio)
C12U A16G U106A	0.278
G48C C123U	-0.702
G47U C53G C56G	-2.42
G17U A24G A26G U112A	-6.66
G10C C73G C85G	-2.53
G71U U87A	-1.3
U109G U132A	-3.91
A83U G117U	-1.02
C3G C11A C12U G58C C62U	-4.45
G10A A43C C123A U125C	-1.73
C28U G48A C53G C89U	-3.42
G77A C82G	-1.13
C34U A41G C56U G63C C89A A95U C104G G110A	-5.19
U9A G71U C94A C123G	0.355
A29U A111C C115G U125G U133A	-4.49
U55A U81A G107U A111U	-4.76
G10C C15U A41C C53G C89U	-3.28
U21A G61A U96C	-0.247
C4G C8G A26G G71A G120U	-1.19
C28A C97U G110C	-1.97
C11G G63U C88A	-1.57
C4G C89A	-2.63
G57U U106G G128C	-3.98
G17A A43U G120A	-3.38

Variant	polymerase ribozyme fitness (log ratio)
A75G C94A	-0.695
U32C U54C G71C A95C	-3.01
C62G C94U	-1.28
C15A A84G C94U	-2.76
C20A C70U G93A G113C U132C	-7.65
C3U C8A C73G G120C G135C	1.56
C80A G93A C124A G128A	-5.36
U7A U81G G122A	-5.92
A18G G39C C94A U112G C124G	-5.87
C8G C62U C99U	-2.93
G36A G42C A84U U106A G110C C123U G128A	-7.57
A5G C8U C72G G110A	-1.25
G10A C22U G36A A43C C49G U92A C98A G120C U125G	-7.92
C28U G52C C56G	-3.11
C13U U14G C80U C115A	-3.73
C8A G51C C73U C94U U130G	-3.59
C20A C72A A118U	-1.46
C11U A118G U133A	-0.694
G57U A119U G120U	-0.267
C11G C28A	-2.78
A50C C89U	-1.06
G42U G61A	-1.21
G47U C101U C114U A118U	-5.66
U9A G36C	0.19

Variant	polymerase ribozyme fitness (log ratio)
G10C A18U G93A U130C	-3.83
A18U A90C G122A	-2.49
G39A C56A	-0.909
C62A U131A	-0.5
C11G U78C	0.168
G45U C82U	-1.52
C4U C15U	-1.62
A18C U32C A95C G117A U129C	-3.97
A2U U131G	-2.07
C101G G122A	-2.93
G19C C20U C40A G61A U87A U112A	-5.56
C4A U7G C31G C70G C86U U87C U112A	-5.92
C22G G77C C88G C123U	-3.61
C3G C28U G61U G120C U125G	-4.18
C22U G120C U130G	-4.69
C11A U30C	-5.07
A5U A18G	-2.05
C11U U112C	1.46
G63C G110U C123U G128C	-5.59
U9A U78C C86A A121C	2.18
G63A A121U	0.59
G10U G61A C123G	1.03
C13U C15U U59A A84C A90C U106G U130A	-4.77
C12A A68G A84C	-4.19

Variant	polymerase ribozyme fitness (log ratio)
A37U A46U G47A C123G	-1.6
G36U A37U	-1.98
G48A G63A A75G	-1.21
C13A A41U G57U	-3.67
C15A U54A C56G	-3.37
U9G G61C	-1.59
C56G C98U G110A	-1.9
U7A G42A C86U	-1.98
G60C G61C C73G C101G A111U G113C C123U U125G U126G	-7.1
C28U G63U G77A C94A U112C	-6.92
A2G C79A	-0.844
G47U U126G	-3.77
C53G G117A U130C	-1.46
C22G C86U C123A	-3.08
U7G A46C A68C C70U C97U G120U G127U	-5.43
U9A G52C C94U C101A	-1.78
C3U G47A G61A A84C	-0.617
A26G C70U	-2.78
G52A G71U U87A U131G	-2.35
G42A G71U U130G	-4.16
U54A C124A	-0.2
C13G G63C U112C G127C U129A	-2.13
G42A C85A C94G G113A	-4.07
C53U U126C	-1.07

Variant	polymerase ribozyme fitness (log ratio)
A18C C72G C124A U129A	-3.56
C3G C88G U112G	-2.52
G44C A95C	-2.1
G51U G69U C88A C104U C123U	-0.711
C11A A27G A41U C49G G61U	-3.34
U7A C12G C40G U106C C114G	-5.02
C22A A83G	-5.4
C76U A90G C115A	-0.0334
C11U C70A A121C	0.0688
A16U C70A	-3.19
G51U G71A C85A C101U	-7.55
C20G U78C	-3.43
U38G C80U	-1.64
C8G G52C C62U C89U	-1.08
U9G U38G U55C	-0.21
U78C G135A	-1.44
C72G G110A	-1.14
G45A G61A G110U U125C	-0.661
A43U C53U A75G C88A U92C	-3.05
U92A A111G U129C U132C	-3.54
C31G G47A C80G C115U U126A	-8
G44A C80A	-3.93
C98A C115U C123U	-7.67
G10C A41C G71C G122A	-2.21

Variant	polymerase ribozyme fitness (log ratio)
C12G C56U	-0.0119
C12U G63A G113A	-1.59
C15U G48U A74C G77C	-2.27
G45U G57C G69U G110A U125A	-0.972
G48A G117C	-3.17
A2U C11G C28U G61A	-2.82
A5G G44A	-0.648
G58U C86A G117U U130G	-3.79
C11U G44A	-1.49
C12U C72U A100C G113U G127A	-3.91
U32C G63C	-0.346
C88G C89A	-1.75
U9G A18U C40U	-0.788
G44C U59G C80A	-4.66
G36U G48A C70U C82U U133G	-1.79
G60A U78G A84U G93A C102A	-4.94
U38G A105C U112A G122C	-5.07
G60C U78A	-0.111
C88U C98A	-4.94
G57U C72U G110C	-4.22
C85U C101G C115A	-2.93
C70A C82A	-1.54
U54A U59G	-0.218
C72G C102U	-1.53

Variant	polymerase ribozyme fitness (log ratio)
A2C G71A C115A C123U	-2.71
C15G A24G C89G C124G	-6.51
A5G U33A C124U	-3.02
G60C A83G	-1.24
U55G C62U C102A	-1.77
A24C G63A	-6.87
U55C A105G C123G	-0.655
C56G U96G	-1.51
U32A C72U	-5
U59A C64U C82G	-0.95
C12A G69C	-2.39
U9A G45A	-0.107
A6U A27U G63A A121G U130A	-2.41
C12A C40G C104U G128U	-3.15
C104A G110U	-3.77
G71A G122A	-1.18
A5C C8U C34A A75U C79U C101G	-3.24
A43C G63A C114G C123U	-6.77
G52C C72U C86U C89U A105U	-4.77
U7A U21G A75G	-1.8
C8A A50U G52A	-2.23
C56G G69U C82U A95U G127U	-3.08
C22A A46C	-5.4
